Measurements as given in paper PMC9974451.

Molecular target: His-importin 7 (Xenopus laevis) (Xenopus laevis)
Assay: differential scanning fluorimetry; His-tagged NTR at 0.5 μM in TPB with 2 mM DTT, His-NOSIP or Ubc9 titrated in 18 steps from 0.05 to 5 μM, 5x SYPRO Orange, 25 to 90 °C; Tm plotted against concentration, exponential fit

B1: His-NOSIP (natural protein)
chain: MTRHGKNCTAGAVYTYHEKKKDTAASGYGTQNIRLSRDAVKDFDCCCLSLQPCHDPVVTPDGYLYEREAILEYILHQKKEIARQMKAYEKQRGTRREEQKELQRAASQDHVRGFLEKESAIVSRPLNPFTAKALSGTSPDDVQPGPSVGPPSKDKDKVLPSFWIPSLTPEAKATKLEKPSRTVTCPMSGKPLRMSDLTPVHFTPLDSSVDRVGLITRSERYVCAVTRDSLSNATPCAVLRPSGAVVTLECVEKLIRKDMVDPVTGDKLTDRDIIVLQRGGTGFAGSGVKLQAEKSRPVMQA
In the case of B1, the Kd is reported as 447 nM.
